assay: label from the status in PepcDB records

Sequence | protein production
MDSTGASQIVSALDVIYSPKSNNSQRQEAQKFLDEVKLCSESPFWGYEIALQNPTNSILKYFGLGLLDHAVKKNWNDYDEGKRVALRKWVMELNFGVQDYDTRYIKEKLATLWVEVAKRTWGEALKQTNPTEEQLLTSWVDMDNNLFELWNINQSSRELALIIFRILFEDVFLLDDLIVLKRMTVIQPLCVMIVCPIEVFAIKYKFSDKWTKFKANEEGWFSVWIPELNNALQQNNSEYIIRLLETLKTCLNWPLTEVIVRNDVLSSLLTCLSSNIPRAQSMALDSIHILLTRPYSNESHYQMTIDRVFDNMDLLDSVYESLLFDPTDDIDETKYPIIKKFVDMISCLYVCVPKIKETNGQIQKYFKLVLKTTYNPSLIVSGLTLDLWCTCLRNDEYLPKLEKYVIPDLLQFAADALVYYEQIDGHISKKFAEIDFQSKSEFQTFCSTYRKRIRDIIRLISCVELDLTYDWLNNRLNNYFSSPFGQQVLSSTFLDHKLEPYLGALSQYMIVECFINGCIRWKIWYPTGDDYDEKLDSILQKLEILSNQLIALNLREPLLLKKQIQNFALFLTMLKDNVLFTLLEKIITSATMDYPEINLEERGAESDAVRDLRYACGIELNRMALLMPESLKKIYPDLESVIARIMPNLSYHEKISFKSFLLIIVLKSSLDMKEERFAAIVDPELLAWSDKTTVVGLSDLHWFMERLGIVQIAEYFQRRDIDENSDLLSIPIDDEGKELKSELTKRWQSLFPVRATRMFIHYSMQSIKTDEEFKMLQDLWRPRIVPILPYITRLLYQLQSYHDPDNWKGLPTVVQSFVKYSTIERFWEAGASNKSKDEFIDEHMKAMQTLRDFADSVGHIIRYTREYTLLVLSAISSLGSVFYLLDESPDLLLNSIAIFKPGSNEISPGVSTHGWKHIMNIAIRPILKGCPKDCLGKFMPAFLPKLFEILDLLLCQKWSSHMNDMDMNPVPTDDDQMTEEILEENLLRQLTTVVVRIVIDCVGQGNANPNSAKSRLNNHQMEMRKIIFNDLNTLAPFLKLLNHLISFKDTKCSFNSILVMKCCLTSVLNQNNTVDEYFTFEVMKNLLLNVLCNSAFKDSFHEALYAFTVIFLTLCKEYPSARAFLFEISNGYNIDELYRNLRSVDEYKTQRALMIDFIDWVKSTSGKEDGNVDHAGDERKRQEKREAILKKANERLIKKNKENGDMLDDPNIEDGAVGNLFDDN | failed
MDSVTLACGNGGKETNALIERVFMPYLKEWIVAFDEDAPKFEASGEYCVSTDSFVITPLIFNGGDIGKLCVCGSANDVSVQGGEPLYLNMGFILEEGLEISLLKQILQSIQKELFKANLKLLSLDTKVVPKGSVDKLFINTTCIGKIIKPGISSYHLQQGQAIILSDTIANHGASLFAMRNEIKLKTNLESDCQLLYPLLKPLFLSDLKIDALRDATRGGLASVLNEWANSSRVKIVIEEEKIPLKEETKGICEILGLEPYALANEGVFVLALNQKDAPKALEILKSNEKAKNACVIGKVFENPYPSVVLKNAWGFERILEVPEGELLPRIC | failed
MDSYFLFFIILTSIFIVPQILKRFNVPTITATMLAGIIIGPFGLNLIQTSSTLDTFASFGVIFLMFLAGMEVDNETLKDEFKNSLVLSLFSMLIPAIGGYFIGQYFGLDFIGSLLYAVIFSSHSVGIVYALMDELGLIKSRFGTTVISASVVIDLISLIVISILIKMGGSGINSDIIPFIVLIVAYIIALLIIIPLISKLILNELQKFHVQKIHFILLIILISIIVGEHIGIHPIIGAFIIGIAVSEELTKEEHDKILNENLNAIGYGIFIPLFFLNLGMTTDISVIFNFDNLSLIFVSVVSLISLKIISGYFSLRILDYNKLKSFCGGLLTVPSLTASLVGATLGRDLGILPEKFFVAVVVIALLTSTVAPIYVKNLVSKNYDKLKLN | failed
MDTAGIRLTPKEIVSKLNEYIVGQNDAKRKVAIALRNRYRRSLLDEESKQEISPKNILMIGPTGVGKTEIARRMAKVVGAPFIKVEATKFTEVGYVGRDVESMVRDLVDVSVRLVKAQKKSLVQDEATAKANEKLVKLLVPSMKKKASQTNNPLESLFGGAIPNFGQNNEDEEEPPTEEIKTKRSEIKRQLEEGKLEKEKVRIKVEQDPGALGMLGTNQNQQMQEMMNQLMPKKKVEREVAVETARKILADSYADELIDQESANQEALELAEQMGIIFIDEIDKVATNNHNSGQDVSRQGVQRDILPILEGSVIQTKYGTVNTEHMLFIGAGAFHVSKPSDLIPELQGRFPIRVELDSLSVEDFVRILTEPKLSLIKQYEALLQTEEVTVNFTDEAITRLAEIAYQVNQDTDNIGARRLHTILEKMLEDLSFEAPSMPNAVVDITPQYVDDKLKSISTNKDLSAFIL | failed
MDTAIILGLLVAVFYGVGTFFAKIVCEKNPLFQWIVVNIVGIILCLIILLKYKNIIITDQKILTYAIISAVLVVIGSLLLYYALYKGKASIVVPLSSIGPAITVALSILFLKETLTLPQMIGIVLIIIGIILLSISN | failed
MDTFDINTEINEDEINVEKIMEKIRENIRKQKGAGIFPEKIHGDLQQGSLLEVTPGESNIQRDLDYINSNWDIQNNSYFISSHRPFVGKFLVRGRDLVHGEIRRYVDPVFWKQTEFNGSTVRLLNDTAGKFIYYNNKIEQLQSEMDSKIEQLQSEMDSKIEHLRPELGNKIERLRSEFENQIEQLKSEIDDSIKAEVNSIISLMNLDIENKAWLASVLDGKIEKGYKNKKTGTPDPGDLDINYFRFEEQFRGSREDIKQRQSCFMNYFLGCSNVLDIGCGRGEFLELASEHGIGAKGVDIDDTMVDFCLSKGLNVVKQEAISYLESVDDKSLDGIFIDQVVEHLEPDYLIKLLKLCFQKLKYGYYIFAETVNPLSFVSFANFYIDMTHKKPIHPETLKFLLTSAGFRDVDTMFFSPVSEKARLQKVPINNDMEEWVKNYLDIYNHNLEKLNGILYGAQDYAVIGKK | failed
MDTNNNIEKEILALVKQNPKVSLIEYENYFSQLKYNPNASKSDIAFFYAPNQVLCTTITAKYGALLKEILSQNKVGMHLAHSVDVRIEVAPKIQINAQSNINYKAIKTSVKDSYTFENFVVGSCNNTVYEIAKKVAQSDTPPYNPVLFYGGTGLGKTHILNAIGNHALEKHKKVVLVTSEDFLTDFLKHLDNKTMDSFKAKYRHCDFFLLDDAQFLQGKPKLEEEFFHTFNELHANSKQIVLISDRSPKNIAGLEDRLKSRFEWGITAKVMPPDLETKLSIVKQKCQLNQITLPEEVMEYIAQHISDNIRQMEGAIIKISVNANLMNASIDLNLAKTVLEDLQKDHAEGSSLENILLAVAQSLNLKSSEIKVSSRQKNVALARKLVVYFARLYTPNPTLSLAQFLDLKDHSSISKMYSGVKKMLEEEKSPFVLSLREEIKNRLNELNDKKTAFNSSE | failed
MDTRKLLLTAQEISRMKGEHKVHFLNPGAVRVNKSLGDAVGLRHMGIHLIQIEPGKESTEYHLHHYEEEAVYVLSGKGTLTMENDQYPIAPGDFVGFPCHAAAHSISNDGTETLVCLVIGQRLDQDVVDYPNQHKRLYRNNGEWNLVDMADIRVLREPTQK | not failed
MDTSNLDTPMRMAAFDRVRGLNEVHDHLTATELQPGFLFRGERIPLVNPQRGIFKPHQMRFLLSIKTVFPKPGGKVWYDDQRDIQRQIFYGDEAIDYAFMGKNPDAADNRWLKEAYENQIPVVYFLGIAPGRYQALLPTFISGWDGQALKARITFGPNPEKLAPPSDSAERRYALRTVKQRLHQATFREAVISAYDGRCAFSGLPEPLLLDAAHIIADKDERLGHPVVTNGIPLSKIHHAAFDAHLIGIDPDFRLHVSDRLLGQNDGPMLEALKQLNGRNIRLPGRAKDHPDRDRLAMRFERYKSVA | failed
MDTSTNLDIGAQLIVEECPSTYSLTGMPDIKIEHPLDPNSEEGSAQGVAMGMKFILPNRFDMNVCSRFVKSLNEEDSKNIQDQVNSDLEVASVLFKAECNIHTSPSPGIQVRHVYTPSTTKHFSPIKQSTTLTNKHRGNEVSTTPLLANSLSVHQLAAQGEMLYLATRIEQENVINHTDEEGFTPLMWAAAHGQIAVVEFLLQNGADPQLLGKGRESALSLACSKGYTDIVKMLLDCGVDVNEYDWNGGTPLLYAVHGNHVKCVKMLLESGADPTIETDSGYNSMDLAVALGYRSVQQVIESHLLKLLQNIKE | failed
MDTVVLVLMLLTAFNFLLKQTFWKLIAVGIITAICAVFAGLMWPYAIEQSKTQIANWLSNQPLMLDTSVLLSVEVCIQMAYAMLAVHVANDYPVKPRMILMYRFLRWFPGLLIFPVLFSGLVYLIFAFPGTSFQTIAWSYAAFILAAIPCGRFILLYLLPEKELRLELFFLTNALVAVLGIVATVNGKTSAAGVSEIDWKALTGVIVIALAGGILGLLWWNIRNRNKEKSVKQ | failed
MDVFSEYLAGIADPFHRERTEEVLTWIKNKYPNLHTEIKWNQPMFTDHGTFIIGFSVSKKHLAVAPEKVTIAHVEDDIVKAGYDYTEQLIRIPWNGPVDYTLLEKMIEFNILDKADCSTFWRK | not failed
